# Assay results from PMC2749878 (Developmental cell, 2009).
# Columns and labels:
# crystal structure = target: the molecule itself; experiment: crystal structure
# [1] = target: T1, MBP-VPS20 α1 - α4 (residues 1-145) (human, UniProt Q96FZ7 1-145); experiment: SPR
# T1 sequence (looked up): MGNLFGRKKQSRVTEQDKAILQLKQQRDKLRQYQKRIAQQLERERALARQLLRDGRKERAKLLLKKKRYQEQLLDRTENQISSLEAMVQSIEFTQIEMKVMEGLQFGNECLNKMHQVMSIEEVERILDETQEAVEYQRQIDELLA
Binder,binding result (crystal structure),Kd [1] [nM]
"SRVTEQDKAILQLKQQRDKLRQYQKRIAQQLERERALA (domain or fragment, human, UniProt Q96FZ7 11-48, looked up) [VPS20 α1 (residues 11-48)]",binds,
"VPS25c, C-terminal winged helix (WH2) domain of human VPS25 (residues 102-176) (domain or fragment, UniProt Q9BRG1 102-176, looked up) RRPEEWGKLIYQWVSRSGQNNSVFTLYELTNGEDTEDEEFHGLDEATLLRALQALQQEHKAEIITVSDGRGVKFF",,2500
